Data published in patent US20240352445A1 (published 2024).
Residue numbers refer to the chain shown, from its start.

B1: rabbit monoclonal antibody C-A11 (antibody, V domains shown)
VH: QSLEESGGRLVTPGTPLTLTCTVSGFSLSTYAMSWVRQAPGKGLEWIGVIASNADTYYASWAKGRITISKTSTTVDLKITSPTTEDTATYFCARHPGSAGYGYAVYYAMDPWGPGTLVTVSS
VL: AIEMTQSPSSLAASVGDTVTITCKASEDIRYGLNWYQQKLGIAPKLLIYGANTLEAGVPSRFSGSGSETDYTLTISSVQAEDAGIYYCQQGYSTPLTFGAGTKVEIK
B2: humanized antibody hN2Y (antibody, V domains shown)
VH: EVQLVESGGGLVQPGGSLRLSCTVSGFSLSTYAMSWVRQAPGKGLEWIGVIASNADTYYASWAKGRFTISRDNSKNTLYLQMNSLRAEDTAVYYCARHPGSAGYGYAVYYAMDPWGQGTLVTVSS
VL: DIQMTQSPSSLSASVGDRVTITCKASEDIRYGLNWYQQKPGKAPKLLIYGANTLEAGVPSRFSGSGSGTDYTLTISSLQPEDFATYYCQQGYSTPLTFGGGTKVEIK
B3: humanized antibody hN2F (antibody, V domains shown)
VH: B2 VH
VL: B2 VL with Y71F
B4: C-A11 (antibody, V domains shown)
VH: B1 VH
VL: B1 VL
B5: hN2F (antibody, V domains shown)
VH: B2 VH
VL: B2 VL with Y71F
B6: hN2Y (antibody, V domains shown)
VH: B2 VH
VL: B2 VL
B7: LxC1-G10 (antibody, V domains shown)
VH: B2 VH
VL: DIQMTQSPSSLSASVGDRVTITCQASERVFYGIDWYQQKPGKAPKLLIYGASALWHGVPSRFSGSGSGTDYTLTISSLQPEDFATYYCQQGYMVPIGFGGGTKVEIK

target: SARS-CoV-2 spike protein trimer, wild type (SARS-CoV-2, UniProt P0DTC2 16-1213)

Row | Binder | IC50 [µg/mL]
1 | B1 | 0.027
2 | B2 | 0.0382
3 | B3 | 0.0246

target: Epsilon (B.1.427)

Row | Binder | IC50 [µg/mL]
4 | B4 | 0.014
5 | B5 | 0.0178
6 | B6 | 0.018
7 | B7 | 0.0169
